# In US11904004B2, “Anti-CD277 antibodies” (INSTITUT NATIONAL DE LA SANTE ET DE LA RECHERCHE MEDICALE …, priority 2010, dated 2024):
# Assays:
# CD4+ T cells = assay: Functional assays on CD4+ T cells using plate-immobilized mAbs; assay type: cell-based, human
# Description: Purified CD4+ T cells (200×10^3 cells/well) from thawed human PBMCs were cultured in RPMI 1640 10% FBS in flat bottom 96-well plates (MICROTEST™ 96, BD) with previously plate-immobilized mouse anti-human CD3 (clone OKT3)/CD28 (clone CD28.2) or anti-CD3/anti-CD277 (clone 20.1) or anti-CD3/isotypic control (IgG1). Purified anti-CD3 was used at 0, 3 μg/ml. Anti-CD28, anti-CD277 and isotypic control were used at 10 μg/ml. Cells were placed into an atmosphere of 5% CO2 at 37° C. in a humidified incubator. […] […] Data were analyzed using FLOWJO® Software (TreeStar, Ashland, OR).
# primary AML blasts [1] = assay: Chromium release assay, lysis of primary AML blasts by NK cells; assay type: cell-based, human
# Description: Effector γδ T cells were established and maintained as previously described^28. PBMC from HV were stimulated with ZOL (1 μm) and rhlL-2 (200 IU/ml) at Day 0. From Day 5, rhIL-2 was renewed every two days and cells were kept at 1.5×10^6/m1 for 15 days. NK cells were isolated using EASYSEP® Human NK cell enrichment kit (StemCell Technologies). The purity of γδ T cells and NK cells was determined by flow cytometry and respectively greater than 80% and 98%. The Burkitt lymphoma cell line, DAUDI, the human AML cell line, U937, and the erythroleukemic cell line, K562, were obtained from the American Type Culture Collection and cultured (0.5×10^6/ml) in RPMI 1640 medium with 10% FCS. […]
# 0.5×10^6 target cells were incubated with 50 pCi of ^51Cr (Perkin-Elmer) for AML blasts and 10 pCi for DAUDI and K562 cells for 90 minutes and mixed with effector cells in a Effector:Target (E:T) ratio of […]. After 4 hours of incubation at 37° C., 50p1 supernatant of each sample was transferred in LUMA® plates and radioactivity was determined by a gamma counter. The percentage of specific lysis was calculated using the formula [(experimental−spontaneous release/total−spontaneous release)×100] and expressed as the mean of triplicate.
# Vγ9Vδ2 T cells = assay: Flow cytometry of Vγ9Vδ2 T cells co-cultured with AML blasts (trogocytosis, CD107a, cytokines); assay type: cell-based, human
# Description: 2×10^5 PBMC were washed in PBS (Cambrex Bio Science) and incubated at 4° C. for 20 min with specified mAb. Following incubation and washing, samples were analyzed on LSRFORTESSA® or FACS CANTO® II (Becton Dickinson) using DIVA® software (BD bioscience, Mountain View, Calif.). For analysis of CD107 expression, γδ T cells were incubated at 37° C. in the presence of anti-CD107a and GOLGISTOP® with or without anti-BTN3A 20.1 mAb. After 4 hours, cells were collected, washed in PBS and analyzed by flow cytometry. To study cytokine production, cells were further permeabilized with PERMWASH® (BD bioscience) to allow intracellular staining with labeled antibodies. Trogocytosis of PKH67 (Sigma Aldrich) labeled blasts by γδ T cells was quantified as previously described^29.
# primary AML blasts [2] = assay: NSG mouse/human primary AML blasts xenograft model; assay type: in vivo; conditions: NSG mice, UPN09 blasts; 250 μg mAb with 15×10^6 Vγ9Vδ2 T cells i.v. twice a week, weeks 8 to 10 post-graft
# Description: NOD-SCID common γ-chain knockout mice (NSG) were purchased from Charles River France or bred in-house and maintained under specific pathogen-free conditions. All animal procedures were in accordance with protocols approved by the local Committee for Animal Experiments. Healthy 6- to 8-weeks-old female mice (n=15) received an injection of 0.2×10^6 luciferase transduced-U937 cells on Day 0, as described^13, and were then randomly assigned in 5 groups to receive intravenous injections of post-expansion-purified Vγ9Vδ2 T cells on Day 1 (30×10^6, 98.8% CD3+TCRVδ2+; Unité de Thérapie Cellulaire et Génique de Nantes) alone or combined to anti-BTN3A 20.1 mAb (250 μg) on Day 2 and 6. Controls comprised NSG mice infused with PBS, or anti-BTN3A 20.1 mAb alone. Mice were imaged with a Photon Imager (Biospace Lab, Paris, France) at different days. For the Primary AML blasts model, NSG mice received sublethal irradiation (2 Gy). On the day after, they received 1×10^6 of CD3-depleted blasts (CD3 depletion Kit, Miltenyi Biotec) isolated from UPN09. […] The peripheral blood number of blasts was quantified during engraftment, before and after treatment by Flow Cytometry (supplementary data 1B). Mice were sacrificed at week 11th post-graft and the number of blasts was quantified in their Bone Marrow (BM).
# [3] = co-stimulation with anti-CD3, vs anti-CD3/IgG1 control, after 24 hours of culture
# [4] = 4-hour co-culture with AML blasts
molecule,measurement,setting,value
"mAb 20.1: murine anti-CD277 antibody obtainable from the hybridoma CNCM I-4402; agonist (antibody, V domains shown) VH: QVQLQQSGAELVKPGASVKLSCKASGYTFTRYYLYWVKQRPGQGLEWIGEINPNNGGTKFNEKFKSKATLTVDKSSRTTYIQLSSLTSEDSAVYYCSREDDYDGTPDAMDYWGQGTAVTVSS VL: DIQMNQSPSSLSASLGDTITITCHASQNINLWLSWYQQRPGNIPKLLIYRASNLHTGVPSRFSGSGSATGFTLTISSLQPEDIATYYCQQGHSYPYTFGGGTKLDIK",IFN-γ production by CD4+ T cells (ELISA),CD4+ T cells; [3],strongly enhanced
same,IL-2 production by CD4+ T cells (ELISA),CD4+ T cells; [3],significantly highest than the one with the IgG control
same,CD25 activated positive cells,"CD4+ T cells; co-stimulation with anti-CD3, after 3 days of culture",45%
same,NK cells-mediated AML blasts lysis,primary AML blasts [1],no effect
same,cytokine production of IFNγ by Vγ9Vδ2 T cells,Vγ9Vδ2 T cells; [4],greater
same,cytokine production of TNFα by Vγ9Vδ2 T cells,Vγ9Vδ2 T cells; [4],greater
same,degranulation assessed by the expression of CD107a,Vγ9Vδ2 T cells; [4],greater ability to degranulate
same,trogocytosis of AML blasts by Vγ9Vδ2 T cells,"Vγ9Vδ2 T cells; 1 hour co-culture, vs IgG1",significantly enhanced
same,circulating blasts (Percentage of variation of the absolute number of blasts in blood before and 4 days after the end of treatment),primary AML blasts [2],37.38±39.89
